The text below walks through data of patent EP3623383A1 (Deutsches Krebsforschungszentrum, Stiftung des öffentlichen …, dated 2020).

Substitutions are numbered along the chain they refer to.

To fix the notation:
T1: FLT3 as expressed on cells (NALM16 cells, FLT3+) (human, UniProt P36888 27-993)
T1 construct: whole, on cells; Endogenous FLT3 of a human leukemia cell line; also called Nalm16 cells expressing FLT3
T1 sequence (looked up): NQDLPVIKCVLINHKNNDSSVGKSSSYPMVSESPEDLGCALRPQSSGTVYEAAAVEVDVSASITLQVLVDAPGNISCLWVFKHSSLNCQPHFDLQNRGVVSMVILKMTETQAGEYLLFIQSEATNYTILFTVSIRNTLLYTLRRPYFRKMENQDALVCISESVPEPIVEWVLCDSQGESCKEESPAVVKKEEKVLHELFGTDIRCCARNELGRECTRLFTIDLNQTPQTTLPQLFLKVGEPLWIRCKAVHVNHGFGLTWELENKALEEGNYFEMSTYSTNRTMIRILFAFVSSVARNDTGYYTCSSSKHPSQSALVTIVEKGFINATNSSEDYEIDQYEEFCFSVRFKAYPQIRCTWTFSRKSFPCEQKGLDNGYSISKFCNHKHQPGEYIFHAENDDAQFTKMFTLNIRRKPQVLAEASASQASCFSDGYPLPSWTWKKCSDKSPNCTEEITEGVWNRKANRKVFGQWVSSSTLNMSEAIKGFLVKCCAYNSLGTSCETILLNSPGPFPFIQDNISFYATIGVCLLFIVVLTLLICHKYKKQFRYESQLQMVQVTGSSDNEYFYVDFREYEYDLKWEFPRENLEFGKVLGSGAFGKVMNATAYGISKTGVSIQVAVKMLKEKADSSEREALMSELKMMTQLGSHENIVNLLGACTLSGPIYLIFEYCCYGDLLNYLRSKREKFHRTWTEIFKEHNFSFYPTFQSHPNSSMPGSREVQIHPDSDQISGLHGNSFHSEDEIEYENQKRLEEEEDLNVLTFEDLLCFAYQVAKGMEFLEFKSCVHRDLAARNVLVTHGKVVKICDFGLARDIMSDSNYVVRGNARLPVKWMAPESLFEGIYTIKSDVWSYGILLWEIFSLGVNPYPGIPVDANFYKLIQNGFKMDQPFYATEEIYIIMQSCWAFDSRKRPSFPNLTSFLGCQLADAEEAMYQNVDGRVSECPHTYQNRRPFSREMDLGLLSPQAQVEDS

B1: V6-V8 (CC-2 variant, parental 4G8 FLT3 domain with UCHT1 CD3 scFv variant V8) (bispecific antibody, human IgG1, kappa)
heavy: QVQLQQPGAELVKPGASLKLSCKSSGYTFTSYWMHWVRQRPGHGLEWIGEIDPSDSYKDYNQKFKDKATLTVDRSSNTAYMHLSSLTSDDSAVYYCARAITTTPFDFWGQGTTLTVSSASTKGPSVFPLAPSSKSTSGGTAALGCLVKDYFPEPVTVSWNSGALTSGVHTFPAVLQSSGLYSLSSVVTVPSSSLGTQTYICNVNHKPSNTKVDKKVEPKSCDKTHTCPPCPAPPVAGPSVFLFPPKPKDTLMISRTPEVTCVVVGVSHEDPEVKFNWYVDGVEVHNAKTKPREEQYNSTYRVVSVLTVLHQDWLNGKEYKCKVSNKQLPSPIEKTISKAKGQPREPQVYTLPPSRDELTKNQVSLTCLVKGFYPSDIAVEWESNGQPENNYKTTPPVLDSDGSFFLYSKLTVDKSRWQQGNVFSCSVMHEALHNHYTQKSLSLSPGKSGDIQMTQSPSSLSASVGDRVTITCRASQDIRNYLNWYQQKPGKAPKLLIYYTSRLESGVPSRFSGSGSGTDYTLTISSLQPEDFATYYCQQGNTLPWTFGQGTKVEIKGGGGSGGGGSGGGGSEVQLVESGGGLVQPGGSLRLSCAASGYSFTGYTMNWVRQAPGKGLEWVALINPYKGVSTYNQKFKDRFTISVDDSKNTAYLQMNSLRAEDTAVYYCARSGYYGDSDWYFDVWGQGTLVTVSS
light: DIVLTQSPATLSVTPGDSVSLSCRASQSISNNLHWYQQKSHESPRLLIKYASQSISGIPSRFSGSGSGTDFTLSINSVETEDFGVYFCQQSNTWPYTFGGGTKLEIKRTVAAPSVFIFPPSDEQLKSGTASVVCLLNNFYPREAKVQWKVDNALQSGNSQESVTEQDSKDSTYSLSSTLTLSKADYEKHKVYACEVTHQGLSSPVTKSFNRGEC
notes: IgGsc format, Fc-attenuated
B2: V6-V9 (CC-2 variant, parental 4G8 FLT3 domain with UCHT1 CD3 scFv variant V9) (bispecific antibody, human IgG1, kappa)
heavy: QVQLQQPGAELVKPGASLKLSCKSSGYTFTSYWMHWVRQRPGHGLEWIGEIDPSDSYKDYNQKFKDKATLTVDRSSNTAYMHLSSLTSDDSAVYYCARAITTTPFDFWGQGTTLTVSSASTKGPSVFPLAPSSKSTSGGTAALGCLVKDYFPEPVTVSWNSGALTSGVHTFPAVLQSSGLYSLSSVVTVPSSSLGTQTYICNVNHKPSNTKVDKKVEPKSCDKTHTCPPCPAPPVAGPSVFLFPPKPKDTLMISRTPEVTCVVVGVSHEDPEVKFNWYVDGVEVHNAKTKPREEQYNSTYRVVSVLTVLHQDWLNGKEYKCKVSNKQLPSPIEKTISKAKGQPREPQVYTLPPSRDELTKNQVSLTCLVKGFYPSDIAVEWESNGQPENNYKTTPPVLDSDGSFFLYSKLTVDKSRWQQGNVFSCSVMHEALHNHYTQKSLSLSPGKSGEVQLVESGGGLVQPGGSLRLSCAASGYSFTGYTMNWVRQAPGKGLEWVALINPYKGVSTYNQKFKDRFTISVDKSKNTAYLQMNSLRAEDTAVYYCARSGYYGDSDWYFDVWGQGTLVTVSSGGGGSGGGGSGGGGSDIQMTQSPSSLSASVGDRVTITCRASQDIRNYLNWYQQKPGKAPKLLIYYTSRLESGVPSRFSGSGSGTDYTLTISSLQPEDFATYYCQQGNTLPWTFGQGTKVEIK
light: B1 light
notes: IgGsc format, Fc-attenuated
B3: V6-V6 (CC-2, FLT3 (4G8) x CD3 (humanized UCHT1) bispecific IgGsc antibody) (bispecific antibody)
heavy: B1 heavy with D645K
light: B1 light
notes: Mouse 4G8 variable regions on human IgG1 constant regions, Fc-attenuated, C-terminal humanized UCHT1 scFv; also called mouse FLT3xCD3 bispecific antibody
B4: V6-V7 (CC-2 variant, parental 4G8 FLT3 domain with UCHT1 CD3 scFv variant V7) (bispecific antibody, human IgG1, kappa)
heavy: B1 heavy with N632A, Q633D, K634S, D637G
light: B1 light
notes: IgGsc format, Fc-attenuated

In this assay the target is T1, FLT3 as expressed on cells (NALM16 …). Briefly: flow cytometry on FLT3+ NALM16 cells; value told of the FLT3 binding part shared by V6 to V9. A general note: A flow cytometer gives signals particle by particle.
Take B1: the concentration giving a half-maximal response (EC50) (usually the concentration giving half of the maximal effect) is about 1 nM.
As for B2, the EC50 was about 1 nM.
Consider B3, for which the EC50 is about 1 nM.
On to B4, for which the EC50 is about 1 nM.
